Experimental data published in patent US20160053277A1, “Compositions Having Dicamba Decarboxylase Activity and Methods of Use” (PIONEER HI-BRED INTERNATIONAL, INC., priority 2013, published 2016).

B1: 275 (protein)
chain: MAQGKVALEEHFAIPETLQDSAGFVPGDYWKELQHRLLDIQDTRLKLMDAHGIETMVLSLAAPAVQAIPDRRKAIEIARRANDMLAEECAKRPDRFLAFAALPLQDPDAATEELQRCVNDLGFVGALVNGFSQEGDGQTPLYYDLPQYRPFWGEVEKLDVPFYLHPRNPLPQDSRIYDGHPWLLGPTWAFAQETAVHALRLMASGLFDEHPRLNIILGHMGEGLPYMMYRIDHRIAWVHEPPRYPAKRRFMDYFNENFHITTSGNFRTQTLIDAILEIGADRILFSTDWPFENIDHAAAWFNATSIAEADRVKIGRTNARRLFKLDGA
modifications: Dicamba decarboxylase variant
B2: 279 (protein)
chain: MAQGKVALEEHFAIPETLQDSAGFVPGDYWKELQHRLLDIQDTRLRLMDAHGIETMILSLAAPAVQAIPDRRKAIEIARRANDMLAEECAKRPDRFLAFAALPLQDPDAATEELQRCVNDLGFVGALVNGFSQEGDGQTPLYYDLPQYRPFWGEVEKLDVPFYLHPRNPLPQDSRIYDGHPWLLGPTWAFAQETAVHALRLMASGLFDEHPRLNIILGHLGEGLPYMMYRIDHRIAWVHEPPRYPAKRRFMDYFNENFHITTSGNFRTQTLIDAILEIGADRILFSTDWPFENIDHAADWFNATSIAEADRLKIGRTNARRLFKLDGD
modifications: Dicamba decarboxylase variant
B3: 276 (protein)
chain: MAQGKVALEEHFAIPETLQDSAGFVPGDYWKELQHRLLDIQDTRLKLMDAHGIETMILSLAAPAVQAIPDRRKAIEIARRANDLLAEECAKRPDRFLAFAALPMQDPDAATEELQRCVNDLGFVGALVNGFSQEGDGQTPLYYDLPQYRPFWGEVEKLDVPFYLHPRNPLPQDSRIYDGHPWLLGPTWAFAQETAVHALRLMASGLFDEHPRLNIILGHMGEGLPYMMYRIDHRIAWVKLPPRYPAKRRFMDYFNENFHITTSGNFRTQTLIDAILEIGADRILFSTDWPFENIDHAADWFNATSIAEADRVKIGRTNARRLFKLDGA
modifications: Dicamba decarboxylase variant
B4: 278 (protein)
chain: MAQGKVALEEHFAIPETLQDSAGFVPGDYWKELQHRLLDIQDTRLKLMDAHGIETMILSLAAPAVQAIPDRRKAIEIARRANDFLAEECAKRPDRFLAFAALPLQDPDAATEELQRCVNDLGFVGALVNGFSQEGDGQTPLYYDLPQYRPFWGEVEKLDVPFYLHPRNPLPQDSRIYDGHPWLLGPTWAFAQETAVHALRLMASGLFDEHPRLNIILGHMGEGLPYMMYRIDHRIAWVHEPPRYPAKRRFMDYFNENFHITTSGNFRTQTLIDAILEIGADRILFSTDWPFENIDHAAAWFNATSIAEADRLKIGRTNARRLFKLDGA
modifications: Dicamba decarboxylase variant
B5: 277 (protein)
chain: MAQGKVALEEHFAIPETLQDSAGFVPGDYWKELQHRLLDIQDTRLKLMDKHGIETMILSLAAPAVQAIPDRRKAIEIARRANDMLAEECAKRPDRFLAFAALPLQDPDAATEELQRCVNDLGFVGALVNGFSQEGDGQTPLYYDLPQYRPFWGEVEKLDVPFYLHPRNPLPQDSRIYDGHPWLLGPTWAFAQETAVHALRLMASGLFDERPRLNIILGHMGEGLPYMMYRIDHRIAWVHEPPRYPAKRRFMDYFNENFHITTSGNFRTQTLIDAILEIGADRILFSTDWPFENIDHATAWFNATSIAEADRVKIGRTNARRLFKLDGA
modifications: Dicamba decarboxylase variant
B6: 396 (protein)
chain: MAQGKVALEEHFAIPETLQDAAGFVPGEYWKELQHRLLDIQDTRLKLMDKHEIETMILSLAAPAVQAIPDRRKAIEIARRANDFLAEEVAKRPDRFLAFAALPLQDPDAATEELQRTVNDLGFVGAMVNGFSQEGDGQTPLYYDLPQYRPFWGEVEKLDVPFYLHPRNPLPQDSRIYDGHPWLLGPTWAFAQETAVHALRLMASGLFDEHPRLNIILGHMGEGLPYMMYRIDHRIGWVKAPPDYAAKRRFMDYFNENFHITTSGNFRTQTLIDAILEIGADRILFSTDWPFENIDHAADWFNATSIAEADRVKIGRTNARRLFKLDGR
modifications: Dicamba decarboxylase variant
B7: 398 (protein)
chain: MAQGKVALEEHFAIPETLQDAAGFVPGDYWKELQHRLLDIQDTRLKLMDKHEIETMILSLAAPAVQAIPDRRKAIEIARRANDFLAEEVAKRPDRFLAFAALPMQDPDAATEELQRCVRDLGFVGALVNGFSQEGDGQTPLYYDLPQYRPFWGEVEKLDVPFYLHPRNPLPQDSRIYDGHPWLLGPTWAFAQETAVHALRLMASGLFDEHPRLNIILGHMGEGLPYMMYRIDHRIGWVKAPPDYAAKRRFMDYFNENFHITTSGNFRTQTLIDAILEIGADRILFSTDWPFENIDHAADWFNATSIAEADRLKIGRTNARRLFKLDLR
modifications: Dicamba decarboxylase variant
B8: 400 (protein)
chain: MAQGKVALEEHFAIPETLQDAAGFVPGDYWKELQHRLLDIQDTRLKLMDKHEIETMILSLAAPAVQAIPDRRKAIEIARRANDFLAEEVAKRPDRFLAFAALPLQDPDAATEELQRTVNDLGFVGAMVNGFSVEGDGQTPLYYDLPQYRPFWGEVEKLDVPFYLHPRNPLPQDSRIYDGHPWLLGPTWAFAQETAVHALRLMASGLFDEHPRLNIILGHLGEGLPYMMYRIDHRIAWVKAPPDYAAKRRFMDYFNENFHITTSGNFRTQTLIDAILEIGADRILFSTDWPFENIDHAADWFNATSIAEADRLKIGRTNARRLFKLDLR
modifications: Dicamba decarboxylase variant
B9: 399 (protein)
chain: MAQGKVALEEHFAIPETLQDAAGFVPGDYWKELQHRLLDIQDTRLKLMDKHEIETMILSLAAPAVQAIPDRRKAIEIARRANDFLAEEVAKRPDRFLAFAALPLQDPDAATEELQRCVNDLGFVGAMVNGFSVEGDGQTPLYYDLPQYRPFWGEVEKLDVPFYLHPRNPLPQDSRIYDGHPWLLGPTWAFAQETAVHALRLMASGLFDEHPRLNIILGHMGEGLPYMMYRIDHRIGWVKAPPDYAAKRRFMDYFNENFHITTSGNFRTQTLIDAILEIGADRILFSTDWPFENIDHAADWFNATSIAEADRVKIGRTNARRLFKLDGR
modifications: Dicamba decarboxylase variant
B10: 401 (protein)
chain: MAQGKVALEEHFAIPETLQDAAGFVPGDYWKELQHRLLDIQDTRLKLMDKHEIETMILSLAAPAVQAIPDRRKAIEIARRANDFLAEEVAKRPDRFLAFAALPLQDPDAATEELQRCVNDLGFVGALVNGFSQEGDGQTPLYYDLPQYRPFWGEVEKLDVPFYLHPRNPLPQDSRIYDGHPWLLGPTWAFAQETAVHALRLMASGLFDEHPRLNIILGHMGEGLPYMMYRIDHRIAWVKAPPDYAAKRRFMDYFNENFHITTSGNFRTQTLIDAILEIGADRILFSTDWPFENIDHAADWFNATSIAEADRLKIGRTNARRLFKLDLR
modifications: Dicamba decarboxylase variant
B11: 397 (protein)
chain: MAQGKVALEEHFAIPETLQDAAGFVPGDYWKELQHRLLDIQDTRLKLMDKHEIETMILSLAAPAVQAIPDRRKAIEIARRANDFLAEEVAKRPDRFLAFAALPLQDPDAATEELQRCVNDLGFVGAMVNGFSQEGDGQTPLYYDLPQYRPFWGEVEKLDVPFYLHPRNPLPQDSRIYDGHPWLLGPTWAFAQETAVHALRLMASGLFDEHPRLNIILGHLGEGLPYMMYRIDHRIAWVKAPPDYAAKRRFMDYFNENFHITTSGNFRTQTLIDAILEIGADRILFSTDWPFENIDHAADWFNATSIAEADRVKIGRTNARRLFKLDLR
modifications: Dicamba decarboxylase variant

Assay: Shuffled variant libraries: 14CO2 capturing assay in 384-well format
Details: decarboxylation activity (carbon dioxide released) compared with unmutated backbone protein SEQ ID NO 133 (DDEC0201)

Row | Molecule | Fold Activity
1 | B1 | 1.0
2 | B2 | 0.9
3 | B3 | 1.0
4 | B4 | 1.2
5 | B5 | 0.9

Same assay, conditions: decarboxylation activity (carbon dioxide released) compared with unmutated backbone protein SEQ ID NO 380 (DDEC0301)

Row | Molecule | Fold Activity
6 | B6 | 1.9
7 | B7 | 1.0
8 | B8 | 1.6
9 | B9 | 1.5
10 | B10 | 1.2
11 | B11 | 1.8
